Measurements reported in patent publication US20230302155A1, “COMPOSITIONS AND METHODS FOR IN VIVO GENERATION OF CAR EXPRESSING CELLS” (Novartis AG, priority 2020, published 2023).
Entries after “also recorded” stand apart in the source; their conditions may differ.

B1: #8: minor mature VEGF-C (103-227) with C137A mutation, SEQ ID NO: 735 (His) / 736 (protein)
chain: TEETIKFAAAHYNTEILKSIDNEWRKTQCMPREVAIDVGKEFGVATNTFFKPPCVSVYRCGGCCNSEGLQCMNTSTSYLSKTLFEITVPLSQGPKPVTISFANHTSCRCMSKLDVYRQVHSIIRR
B2: #7: minor mature VEGF-C (103-227), wild type, SEQ ID NO: 733 (His) / 734 (protein, listed as Homo sapiens)
chain: TEETIKFAAAHYNTEILKSIDNEWRKTQCMPREVCIDVGKEFGVATNTFFKPPCVSVYRCGGCCNSEGLQCMNTSTSYLSKTLFEITVPLSQGPKPVTISFANHTSCRCMSKLDVYRQVHSIIRR
B3: #9: major mature VEGF-C (112-227) with C137A mutation, SEQ ID NO: 737 (His) / 738 (protein)
chain: AHYNTEILKSIDNEWRKTQCMPREVAIDVGKEFGVATNTFFKPPCVSVYRCGGCCNSEGLQCMNTSTSYLSKTLFEITVPLSQGPKPVTISFANHTSCRCMSKLDVYRQVHSIIRR
B4: #2: major mature VEGF-C (112-227), wild type, SEQ ID NO: 731 (His) / 732 (protein, listed as Homo sapiens)
chain: AHYNTEILKSIDNEWRKTQCMPREVCIDVGKEFGVATNTFFKPPCVSVYRCGGCCNSEGLQCMNTSTSYLSKTLFEITVPLSQGPKPVTISFANHTSCRCMSKLDVYRQVHSIIRR

Assays:
[1] = test system: EGFRvIII CARTs; assay: Cytokine production of EGFRvIII CARTs stimulated by ligand-presenting MSRs; type: cell-based; conditions: lipid-coated MSRs, multiplex cytokine analysis
Procedure: Briefly, liposomes primarily composed of POPC with 1 mol % PE-biotin were formed using a thin film rehydration method and extrusion through a 100 nm polycarbonate membrane. Hydroxyl functionalized MSRs were incubated with the liposomes to allow the formation of a supported lipid bilayer on the MSR surface (FIG. 6). To functionalize the MSRs with CD3 and CD28 agonistic antibodies, MSRs were washed several times with PBS, incubated with streptavidin, and then tethered with biotinylated CD3 and CD28 antibodies. For MSR-immobilization of EGFRvIII CAR-binding peptides, a biotinylated EGFRvIII CAR-binding peptide was used (FIG. 7).
After incubation with the desired ligands, MSRs were washed several times with PBS and resuspended in culture medium at various concentrations and incubated with T cells. […] Cytokine production was assessed using a multiplex cytokine analysis method (Mesoscale Delivery V-Plex).

[2] = test system: lymphatic endothelial cells (LECs); assay: In vivo lymphangiogenesis in mouse skin after cryogel delivery (flow cytometry); design: species or system C57/BL6 mice; conditions: for in vivo lymphangiogenesis (LEC counts per mg of tissue): 10 μg VEGF-C in cryogel (0.25 mg/ml laponite), day 14
Procedure: (§1) Tissues were harvested from mice, weighted, and cut into very fine pieces with scissors. Samples were then enzymatically digested under constant stirring in of digestion media containing collagenase 4 and DNAse 1. Samples were then pipetted up and down. Following pipetting, digestion media containing collagenase D and DNAse 1 was added to the samples. Samples were pipetted up and down for 3 cycles. EDTA was added (5 mM) and cells were filtered through 70 μm filters and 40 uM mesh and resuspended in Fc blocking buffer. Cells were washed and stained for FACS analysis.
(§2) Cryogels (0.25 mg/ml laponite) containing 10 μg of different VEGF-C constructs were injected superficially into the dermis mice (N=5/group) at day 0. At day 14 mice were euthanized and the skin/cryogel (combined) were dissected for digestion and FACS analysis. Representative FACS plots of LECs (CD31^+, PDPN^+) are pre-gated on FSC-A/SSC-A, and CD45^− (FIG. 22). The results of FIG. 23 bear on the delivery of VEGF-C. Mice were injected with VEGF-C (N=12) or blank cryogels (N=10) synthesized as previously mentioned. Skin/gels from mice were harvested at timepoints day 7, 14, and 21, digested, and stained for FACS. LECs were gated on CD45^− CD31^+ PDPN^+. BECs were gated on CD45^− CD31^+ PDPN^−. CD4 and CD8 T Cells were gated on CD45^+ CD11b^−CD11c^−Thy1^+.
First, cryogels (0.25 mg/ml laponite) containing 10 μg of different VEGF-C forms, including the dimeric forms of the major and minor mature forms that are wild-type (#2 and #7, respectively) and the major and minor mature forms that comprise the C137A mutation (#9 and #8, respectively), were injected superficially into the dermis of mice (N=5/group) at day 0. At day 14 mice were euthanized and the skin/cryogel (combined) were dissected for digestion and FACS analysis (FIG. 22A). Specifically, tissues were harvested from mice, weighted, and cut into very fine pieces with scissors. Samples were then enzymatically digested under constant stirring of digestion media containing collagenase 4 and DNAse 1. Samples were then pipetted up and down. Following pipetting, digestion media containing collagenase D and DNAse 1 was added to the samples. Samples were pipetted up and down for 3 cycles. EDTA was added (5 mM) and cells were filtered through 70 μm filters and 40 μM mesh and resuspended in Fc blocking buffer. Cells were washed and stained for FACS analysis.
In addition, the response of skin lymphatics to […] VEGF-C delivered by alginate cryogels was measured. […] Skin/gels from mice were harvested as described above, at timepoints day 7, 14, and 21, digested, and stained for FACS. LECs were gated on CD45^− CD31^+ PDPN^+. BECs were gated on CD45^− CD31^+ PDPN^−. […] The number of cells per mg of tissue were also quantified.

[3] = test system: CD4+ T cells and CD8+ T cells; assay: Immune infiltration of mouse skin after cryogel delivery (flow cytometry); type: in vivo, C57/BL6 mice; conditions: skin on top of the cryogels
Procedure: as §1
as §2, with “BECs were gated on CD45^− CD31^+ PDPN^−. CD4 and CD8 T Cells were gated on CD45^+ CD11b^−CD11c^−Thy1^+.” left out
In addition, the response of skin lymphatics to […] VEGF-C delivered by alginate cryogels was measured. […] The number of cells per mg of tissue were also quantified.

[4] = test system: human dermal lymphatic endothelial cells (HDLECs); assay: HDLECs sprouting (tube formation) assay; type: cell-based; conditions: 600 μg of VEGF-C protein, overnight, phalloidin staining
Procedure: Human Dermal Lymphatic Endothelial Cells (HDLECs) were seeded (p0) and passaged at 75% confluence until p4 or enough cells were obtained for experiments. One ml was then aliquoted into Eppendorf tubes, treated with 600 μg of VEGF-C protein, and vortexed. Each treatment was added to warmed media in a 6 well plate and incubated overnight at 37 C (5% CO2). For imaging analysis cells were washed and then fixed with 3.7% formalin-0.05% Triton X-100 solution (fixing buffer), then washed and coated with 0.1% Triton X-100 solution (permeabilization buffer). After washing twice with PBS cells were coated with 0.05% Triton X-100 in 1% BSA solution (blocking buffer). DAPI and phalloidin staining was performed according to known protocols. After staining cells were washed twice with PBS and imaged.
An overview of the experimental setup of the in vitro sprouting assay on HDLECs to test the biological activity of VEGF-C variants is shown in FIG. 20A. HDLECs were first seeded (p0) and passaged at 75% confluence until p4 or enough cells were obtained for experiments. About 1 mL of the HDLECs was then aliquoted into Eppendorf tubes, treated with 600 μg of VEGF-C protein, and vortexed. Each treatment was added to warmed media in a 6 well plate and incubated overnight at 37 C (5% CO2). For imaging analysis, cells were washed and then fixed with 3.7% formalin-0.05% Triton X-100 solution (fixing buffer), then washed and coated with 0.1% Triton X-100 solution (permeabilization buffer). After washing twice with PBS, cells were coated with 0.05% Triton X-100 in 1% BSA solution (blocking buffer). DAPI and phalloidin staining was performed according to known protocols. After phalloidin staining, cells were washed twice with PBS, and imaged for tube formation.

Row | Molecule | interferon gamma and IL-2 production [1] | in vivo lymphangiogenesis (LEC counts per mg of tissue) ([2]; skin) | sprouting of HDLECs (tube formation) [4] | other results
1 | EGFRvIII CAR-binding peptide bound to the surface of the MSRs: biotinylated peptide LEEKKGNYVVTDH (SEQ ID NO: 756) coupled via streptavidin to lipid-coated MSRs | produced interferon gamma and IL-2 |  |  | 
2 | free EGFRvIII CAR-binding peptide in solution: EGFRvIII CAR-binding peptide LEEKKGNYVVTDH (SEQ ID NO: 756) [reference compound] | no response |  |  | 
3 | B1 |  | high in vivo lymphangiogenesis; also recorded: higher amounts of LECs compared to the dimers of the major and minor mature forms that are wild-type | better sprouting of HDLECs than the immature form | blood vascular endothelial cells (BECs, CD45−CD31+PDPN−) ([2]; skin, 14 days after cryogel delivery): not affected; day of peak T cell / immune infiltration after cryogel delivery [3]: 14 days
4 | B2 |  |  | better sprouting of HDLECs than the immature form | time of peak lymphangiogenesis after cryogel delivery ([2]; 10 μg VEGF-C in alginate cryogel, subcutaneous): 14 days
5 | B3 |  | high in vivo lymphangiogenesis; also recorded: higher amounts of LECs compared to the dimers of the major and minor mature forms that are wild-type | better sprouting of HDLECs than the immature form | 
6 | B4 |  |  | better sprouting of HDLECs than the immature form | 
